From patent US20190117770A1, “USES OF IMMUNOCONJUGATES TARGETING CD138” (Biotest AG, priority 2011, published 2019)
Values joined by “and” are separate entries in the source; they are usually repeats but may differ in a detail not shown here. Identical values can stand only once. Like-named read-outs stand apart in the source and are kept apart here.

Columns and labels:
[1] = tested on: Jurkat; test: Sensitivity of cell lines towards BT062; assay type: cell-based; conditions: T cell lymphoma
[2] = Plasma level of BT062 (PK ELISA), repeated single dose; assay type: in vivo, human; conditions: for effective Cmax (cycle 1) mean: 0-2 h post infusion; for effective Cmax (cycle 4) mean: day 64
Description: (§1) Theoretical Cmax was Calculated According to the Following Assumed Parameters: […]
The same evaluation was performed during treatment cycle 4. […] The amount of BT062 in the plasma is determined via a PK ELISA method described as follows:
(§2) The wells of a microtiter plate are first coated with anti-maytansinoid (anti-DM4) antibody overnight at 2-8° C. and after blocking with assay buffer (0.5% BSA/TBS) incubated on the next day with plasma samples. These are diluted beforehand at least 1:100 in assay buffer. […] After incubation, unbound material is removed by washing. […] Unbound secondary antibody is removed by another washing step. After this, TMB substrate solution is pipetted into all the wells. […] The color reaction is ended using a stop solution, which causes the color to change from blue to yellow. The final measurement is carried out with a photometer at a wavelength of 450 nm.
(§3) The relationship between concentration and optical density is evaluated using Magellan V6.6 software.

[3] = Plasma level of BT062 (PK ELISA), repeated multiple dose; assay type: in vivo, human
Description: as §1
The same evaluation was performed during treatment cycle 4.
as §2, §3

[4] = tested on: OPM-2 cells; test: FACS analysis of binding; assay type: cell-based; conditions: FIG. 6
Description: OPM-2 cells are plasma cell leukaemia cell lines showing highly expressing CD138. […] The cells were washed and CD138-bound antibody or conjugates were detected using a fluorescence-labelled secondary antibody in FACS analysis. The mean fluorescence measured in these experiments was plotted against the antibody concentration.

[5] = tested on: CD138+ MOLP-8 cells; test: WST cell viability assay; assay type: cell-based
Description: CD138^+ MOLP-8 cells were seeded in flat bottom plates at 3000 cells/well. CD138^− BJAB control cells were seeded at 1000 cells/well. WST reagent (water-soluble tetrazolium salt, ROCHE) was added in order to measure cell viability according to the manufacturer's instruction (ROCHE). The reagent was incubated for 7.5 h on MOLP-8 cells and for 2 h on BJAB cells. The fraction of surviving cells was calculated based on the optical densities measured in a microplate reader using standard procedures.

[6] = tested on: pancreatic tumor tissue PAXF 736; test: Pancreas carcinoma xenograft; assay type: in vivo, NMRI mice; conditions: for T/C (%): day 52
Description: (§4) These tumors display similar characteristics as the patient tumors, since they are passaged in mice at low numbers, to retain original characteristics.
Tumor diameters have been measured two times a week. Tumor volumes were calculated according to the formula axbxb/2 where “a” is the longest axis and “b” the perpendicular axis thereto.
Tumor inhibition for a particular day (T/C in %) was calculated from the ratio of the median RTV (relative tumor volume) values of test versus control groups multiplied by 100%.

[7] = tested on: primary mammary tumor of a patient; test: Mammary carcinoma xenograft; assay type: in vivo, NMRI (nude) mice; conditions: for T/C: day 21
[8] = tested on: metastatic patient tissues derived from a bladder tumor; test: Metastatic bladder tumor xenograft; assay type: in vivo, NMRI (nude) mice; conditions: both dose groups (4 mg/kg and 23.85 mg/kg once per week)
Description: as §4
To investigate metastatic tumors, NMRI (nude) mice were implanted with a metastatic patient tissues derived from a bladder tumor (determined via IHC analysis as CD138 strong positive).

[9] = tested on: human derived breast cancer model with CD138 IHC score 2-3; test: Breast cancer model, CD138 IHC score 2-3; assay type: in vivo, NMRI nude mice; conditions: 8 mg/kg once weekly
Description: The results are shown in terms of the effect on the mean relative tumor volume in the model relative to an intravenous administration of PBS. For the calculation of the median relative tumor volume on day, see FIG. 33.

[10] = tested on: primary pancreatic tumor; test: Example 9 xenograft (FIG. 38); assay type: in vivo, NMRI (nude) mice; conditions: 4 and 8 mg/kg once weekly; re-growth in treatment free period
Description: The results are shown in terms of the effect on the mean relative tumor volume.

[11] = Half life in human plasma ex vivo; assay type: in vitro ADME
[12] = tested on: MOLP 8 human myeloma cells
Description: Female SCID mice were subcutaneously inoculated with MOLP 8 human myeloma cells. […] A control group of animals received phosphate buffered saline (PBS) using the same schedule and route of administration. Tumor growth was monitored by measuring tumor size and calculated with the formula length×width×height×1/2, determined on days 10, 14, 18 and 21.
FTV: Fractional tumor volume=mean tumor volume (test)/mean tumor volume (control)

BT062
IC50 [1]: 39 nM
percentage of theoretical Cmax (cycle 1) ([2]; 10 mg/m^2): 15%
effective Cmax (cycle 1) mean ([2]; 10 mg/m^2): 1110 ng/mL and 1100 ng/mL
percentage of theoretical Cmax (cycle 1) ([2]; 20 mg/m^2): 20%
percentage of theoretical Cmax (cycle 4) ([2]; 20 mg/m^2): 49%
effective Cmax (cycle 1) mean ([2]; 20 mg/m^2): 2900 ng/mL
effective Cmax (cycle 4) mean ([2]; 20 mg/m^2): 7060 ng/mL
percentage of theoretical Cmax (cycle 1) ([2]; 40 mg/m^2): 16%
percentage of theoretical Cmax (cycle 4) ([2]; 40 mg/m^2): 9%
effective Cmax (cycle 1) mean ([2]; 40 mg/m^2): 4310 ng/mL
effective Cmax (cycle 4) mean ([2]; 40 mg/m^2): 2510 ng/mL
percentage of theoretical Cmax (cycle 1) ([2]; 80 mg/m^2): 34%
percentage of theoretical Cmax (cycle 4) ([2]; 80 mg/m^2): 26%
effective Cmax (cycle 1) mean ([2]; 80 mg/m^2): 18800 ng/mL
effective Cmax (cycle 4) mean ([2]; 80 mg/m^2): 14200 ng/mL
percentage of theoretical Cmax (cycle 1) ([2]; 120 mg/m^2): 26.5%
effective Cmax (cycle 1) mean ([2]; 120 mg/m^2): 21400 ng/mL
percentage of theoretical Cmax (cycle 1) ([2]; 160 mg/m^2): 74.5%
percentage of theoretical Cmax (cycle 4) ([2]; 160 mg/m^2): 71%
effective Cmax (cycle 1) mean ([2]; 160 mg/m^2): 81200 ng/mL
effective Cmax (cycle 4) mean ([2]; 160 mg/m^2): 77400 ng/mL
percentage of theoretical Cmax (cycle 1) ([2]; 200 mg/m^2): 60%
effective Cmax (cycle 1) mean ([2]; 200 mg/m^2): 82000 ng/mL
% of theoretical Cmax, Mean (%) ([3]; 40 mg/m^2 weekly): 33%
Mean conc. missing to theor. Cmax per Cycle ([3]; 40 mg/m^2 weekly, table rows = cycles C1 to C4): 19.5
% of theoretical Cmax, Mean (%) ([3]; 50 mg/m^2 weekly): 33%
Mean conc. missing to theor. Cmax per Cycle ([3]; 50 mg/m^2 weekly, table rows = cycles C1 to C4): 23.3
% of theoretical Cmax, Mean (%) ([3]; 65 mg/m^2 weekly): 60%
% of theoretical Cmax ([3]; 65 mg/m^2 weekly, cycle/day C1 D1 to C3 D15): 43% and 63% and 72% and 52% and 61% and 71% and 73%
Mean conc. missing to theor. Cmax per Cycle ([3]; 65 mg/m^2 weekly, table rows = cycles C1 to C3): 15.3
Plasma level/Mean ([3]; 80 mg/m^2, 2 hr after completion of administration on days 0, 7, 14): 22910 ng/mL
% of theoretical Cmax ([3]; 80 mg/m^2 weekly, cycle/day C1 D1 to C3 D15): 42% and 45% and 50% and 43% and 39% and 53% and 41%
Mean conc. missing to theor. Cmax per Cycle ([3]; 80 mg/m^2 weekly, table rows = cycles C1 to C3): 30.3
% of theoretical Cmax, Mean (%) ([3]; 100 mg/m^2 weekly): 108%
% of theoretical Cmax, Mean (%) ([3]; 120 mg/m^2 weekly): 69%
% of theoretical Cmax ([3]; 120 mg/m^2 weekly, cycle/day C1 D1 to C2 D15): 69% and 74% and 79% and 62% and 67%
actual Cmax as % of theoretical Cmax ([3]; 3×50 mg/m^2 on days 1, 8, 15): < 50%
binding characteristics [4]: very similar binding characteristics
cytotoxicity after preincubation with molar excess of unconjugated nBT062 ([5]; FIG. 7 (D)): substantially blocked
cytotoxic activity ([5]; five days, FIG. 7): very similar
complete remission obtained, days after tumor implantation ([6]; 13.25 mg/kg): 35 days
mice alive after 52 days ([6]; 13.25 mg/kg): 8/8
T/C (%) ([6]; 13.25 mg/kg once weekly): 0.0%
complete remission obtained, days after tumor implantation ([6]; 23.85 mg/kg): 28 days
T/C (%) ([6]; 23.85 mg/kg once weekly): 0.0%
tumor regrowth in treatment free observation phase ([6]; both treatment groups): no tumor regrowth
side effects ([6]; mouse, in vivo): No side effects
mice with complete remission without tumor regrowth ([7]; 1 mg/kg once weekly): 3/7
mice with partial remission ([7]; 1 mg/kg once weekly): 2/7
tumor response ([7]; 1 mg/kg once weekly): tumor stasis
T/C ([7]; 13.25 mg/kg/4 mg/kg): 0.0
T/C ([7]; 23.85 mg/kg): 0.0
tumor response ([7]; 4 and 2 mg/kg once weekly (FIG. 35)): complete remission
tumor regrowth in treatment free observation period ([7]; 39 days after the last administration): no tumor regrowth
complete remission achieved after ([7]; FIG. 9): 21 days
T/C value ([7]; both treatment groups): below 10%
influence on body weight after each injection ([7]; mouse, in vivo): no influence on body weight
tumor response [8]: Complete remission
tumor response [9]: complete remission
tumor response [10]: complete remission
plasma half life [11]: 14 days
Regressions Complete ([12]; BT062 100 ug/kg): 0/6
Regressions Partial ([12]; BT062 100 ug/kg): 0/6
Result ([12]; BT062 100 ug/kg): Active
T/C (%) (DAY 17) ([12]; BT062 100 ug/kg): 35%
Tumor free survivors day 77 ([12]; BT062 100 ug/kg): 0/6
Regressions Complete ([12]; BT062 200 ug/kg): 0/6
Regressions Partial ([12]; BT062 200 ug/kg): 0/6
Result ([12]; BT062 200 ug/kg): Active
T/C (%) (DAY 17) ([12]; BT062 200 ug/kg): 14%
Tumor free survivors day 77 ([12]; BT062 200 ug/kg): 0/6
Regressions Complete ([12]; BT062 400 ug/kg): 1/6
Regressions Partial ([12]; BT062 400 ug/kg): 4/6
Result ([12]; BT062 400 ug/kg): highly active (A Log10 cell kill of higher than 2.8)
T/C (%) (DAY 17) ([12]; BT062 400 ug/kg): 9%
Tumor free survivors day 77 ([12]; BT062 400 ug/kg): 0/6
